Publication doi:10.1101/2025.06.05.658000 (2025)
Read-outs that look alike come from different tables or passages of the source. No end group written: not given here. *: point of attachment. Biotin = O=C1N[C@H]2[C@H](CS[C@H]2CCCCC(=O)*)N1; Ahx = NCCCCCC(=O)O

Legend:
Assay in all cases: ELISA
[1] = biological target: T1, HLA-DR (DRA1*01:01 / DRB1*12:01), soluble knob-into-hole Fc heterodimer (human)
[2] = biological target: T2, HLA-DR (DRA1*01:01 / DRB1*07:01), soluble knob-into-hole Fc heterodimer (human)
[3] = biological target: HLA-DR (DRA1*01:01 / DRB1*03:01), soluble knob-into-hole Fc heterodimer (human)
[4] = biological target: HLA-DR (DRA1*01:01 / DRB1*04:06), soluble knob-into-hole Fc heterodimer (human)
[5] = biological target: HLA-DR (DRA1*01:01 / DRB1*01:02), soluble knob-into-hole Fc heterodimer (human)
[6] = biological target: HLA-DR (DRA1*01:01 / DRB1*11:04), soluble knob-into-hole Fc heterodimer (human)
[7] = biological target: HLA-DR (DRA1*01:01 / DRB1*13:02), soluble knob-into-hole Fc heterodimer (human)
[8] = biological target: HLA-DR (DRA1*01:01 / DRB1*14:01), soluble knob-into-hole Fc heterodimer (human)
[9] = biological target: HLA-DR (DRA1*01:01 / DRB1*14:54), soluble knob-into-hole Fc heterodimer (human)
[10] = biological target: HLA-DR (DRA1*01:01 / DRB1*16:02), soluble knob-into-hole Fc heterodimer (human)
[11] = biological target: HLA-DR (DRA1*01:01 / DRB1*11:01), soluble knob-into-hole Fc heterodimer (human)
[12] = biological target: HLA-DR (DRA1*01:01 / DRB1*09:01), soluble knob-into-hole Fc heterodimer (human)
[13] = biological target: HLA-DR (DRA1*01:01 / DRB1*15:03), soluble knob-into-hole Fc heterodimer (human)
[14] = biological target: HLA-DR (DRA1*01:01 / DRB1*12:02), soluble knob-into-hole Fc heterodimer (human)
[15] = biological target: HLA-DR (DRA1*01:01 / DRB1*04:07), soluble knob-into-hole Fc heterodimer (human)
[16] = biological target: HLA-DR (DRA1*01:01 / DRB1*13:01), soluble knob-into-hole Fc heterodimer (human)
[17] = biological target: T1, HLA-DR (DRA1*01:01 / DRB1*12:01), …; remark: listed apart in the source
[18] = biological target: HLA-DR (DRA1*01:01 / DRB1*04:03), soluble knob-into-hole Fc heterodimer (human)
[19] = biological target: HLA-DR (DRA1*01:01 / DRB1*04:04), soluble knob-into-hole Fc heterodimer (human)
[20] = biological target: HLA-DR (DRA1*01:01 / DRB1*15:01), soluble knob-into-hole Fc heterodimer (human)
[21] = biological target: HLA-DR (DRA1*01:01 / DRB1*01:01), soluble knob-into-hole Fc heterodimer (human)
[22] = biological target: HLA-DR (DRA1*01:01 / DRB1*04:01), soluble knob-into-hole Fc heterodimer (human)
[23] = biological target: HLA-DR (DRA1*01:01 / DRB1*04:05), soluble knob-into-hole Fc heterodimer (human)
[24] = biological target: HLA-DR (DRA1*01:01 / DRB1*15:02), soluble knob-into-hole Fc heterodimer (human)
[25] = biological target: HLA-DR (DRA1*01:01 / DRB1*10:01), soluble knob-into-hole Fc heterodimer (human)
[26] = biological target: T2, HLA-DR (DRA1*01:01 / DRB1*07:01), …; remark: listed apart in the source

B1: SARS-CoV-2 RBD peptide RBD483-497 (peptide)
peptide: VEGFNCYFPLQSYGF
Kd [1]: 439 nM | Kd [2]: 173 nM

B2: biotin-labeled human Class II-associated Invariant Chain Peptide (Bio-CLIP) (peptide)
peptide: KPVSKMRMATPLLMQALPM
modifications: also: biotin-labeled
Kd [3]: 15.1 nM | Kd [4]: 2.63 nM | Kd [5]: 1.78 nM | Kd [6]: 4.54 nM | Kd [7]: 4.13 µM | Kd [8]: 9.17 nM | Kd [9]: 3.35 nM | Kd [10]: 8.67 nM | Kd [11]: 12 nM | Kd [12]: 0.576 nM | Kd [13]: 5.31 nM | Kd [14]: 1.27 nM | Kd [15]: 2.76 nM | Kd [16]: 315 nM | Kd [17]: 22.9 nM | Kd [18]: 2.32 nM | Kd [19]: 2.7 nM

B3: SARS-CoV-2 RBD peptide RBD419-433 (peptide)
peptide: ADYNYKLPDDFTGCV
Kd [1]: > 10000 nM | Kd [2]: > 10000 nM

B4: SARS-CoV-2 RBD peptide RBD447-461, wildtype strain (peptide)
peptide: GNYNYLYRLFRKSNL
Kd [1]: 229 nM | Kd [2]: 163 nM

B5: SARS-CoV-2 RBD peptide RBD511-525 (peptide)
peptide: VVLSFELLHAPATVC
Kd [1]: 631 nM | Kd [2]: 263 nM

B6: biotin-labeled human Class II-associated Invariant Chain Peptide (Bio-CLIP) (peptide)
peptide: {Biotin-Ahx}-KPVSKMRMATPLLMQALPM
Kd [20]: 2.13 nM | Kd [21]: 1.83 nM | Kd [22]: 2.35 nM | Kd [23]: 14.9 nM | Kd [24]: 8.75 nM | Kd [25]: 1.27 nM | Kd [26]: 4.09 nM

B7: SARS-CoV-2 RBD peptide RBD323-337 (peptide)
peptide: TESIVRFPNITNLCP
Kd [1]: 4930 nM | Kd [2]: 435 nM
